Values belong to the binder of their own block, whether it stands above or below them.
Tests used:
O1-AA = target: T1, O1-AA; assay: two-hybrid library CCmax; details: mean of both orientations;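 note: natural log of median RNA to DNA barcode read ratio; higher means stronger binding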
T1 chain: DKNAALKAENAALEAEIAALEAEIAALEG

4H697-AA = target: T2, 4H697-AA; assay: two-hybrid library CCmax; details: mean of both orientations;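 note: natural log of median RNA to DNA barcode read ratio; higher means stronger binding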
T2 chain: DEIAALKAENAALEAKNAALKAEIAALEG

O13-AA = target: T3, O13-AA; assay: two-hybrid library CCmax; details: mean of both orientations;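 note: natural log of median RNA to DNA barcode read ratio; higher means stronger binding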
T3 chain: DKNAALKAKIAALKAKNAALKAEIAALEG

4H384-AA = target: T4, 4H384-AA; assay: two-hybrid library CCmax;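 note: natural log of median RNA to DNA barcode read ratio; higher means stronger binding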
T4 chain: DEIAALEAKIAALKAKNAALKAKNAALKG

4H982-AA = target: T5, 4H982-AA; assay: two-hybrid library CCmax; details: mean of both orientations;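 note: natural log of median RNA to DNA barcode read ratio; higher means stronger binding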
T5 chain: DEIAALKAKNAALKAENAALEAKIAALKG

4H4038-AA = target: T6, 4H4038-AA; assay: two-hybrid library CCmax; details: mean of both orientations;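 note: natural log of median RNA to DNA barcode read ratio; higher means stronger binding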
T6 chain: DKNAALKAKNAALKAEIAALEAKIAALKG

4H_BCR = target: T7, 4H_BCR; assay: two-hybrid library CCmax; details: mean of both orientations
T7 chain: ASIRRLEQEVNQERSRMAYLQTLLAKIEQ

O3-AA = target: T8, O3-AA; assay: two-hybrid library CCmax; details: mean of both orientations
T8 chain: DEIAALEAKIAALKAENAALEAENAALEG

GCN2_T = assay: two-hybrid library CCmax; details: mean of both orientations
O4-AA = target: T9, O4-AA; assay: two-hybrid library CCmax; details: mean of both orientations
T9 chain: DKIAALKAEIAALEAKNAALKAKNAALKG

O6-AA = target: T10, O6-AA; assay: two-hybrid library CCmax; details: mean of both orientations
T10 chain: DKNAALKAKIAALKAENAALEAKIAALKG

O8-AA = target: T11, O8-AA; assay: two-hybrid library CCmax; details: mean of both orientations
T11 chain: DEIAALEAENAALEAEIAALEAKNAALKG

O7-AA = target: T12, O7-AA; assay: two-hybrid library CCmax; details: mean of both orientations
T12 chain: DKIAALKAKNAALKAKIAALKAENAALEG

O2-AA = target: T13, O2-AA; assay: two-hybrid library CCmax; details: mean of both orientations
T13 chain: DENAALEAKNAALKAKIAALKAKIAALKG

4H3905-AA = target: T14, 4H3905-AA; assay: two-hybrid library CCmax; details: mean of both orientations
T14 chain: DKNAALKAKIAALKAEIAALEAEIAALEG

4H451-AA = target: T15, 4H451-AA; assay: two-hybrid library CCmax; details: mean of both orientations
T15 chain: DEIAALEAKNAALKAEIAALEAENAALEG

P10-AA = target: T16, P10-AA; assay: two-hybrid library CCmax; details: mean of both orientations
T16 chain: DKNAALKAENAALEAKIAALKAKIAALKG

O14-AA = target: T17, O14-AA; assay: two-hybrid library CCmax; details: mean of both orientations
T17 chain: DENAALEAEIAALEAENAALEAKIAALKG

P9-AA = target: T18, P9-AA; assay: two-hybrid library CCmax; details: mean of both orientations
T18 chain: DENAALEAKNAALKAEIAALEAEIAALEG

O5-AA = target: T19, O5-AA; assay: two-hybrid library CCmax; details: mean of both orientations
T19 chain: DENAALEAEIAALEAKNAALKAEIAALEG

4H_APH = target: T20, 4H_APH; assay: two-hybrid library CCmax; details: mean of both orientations
T20 chain: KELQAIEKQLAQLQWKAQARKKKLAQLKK

4H43-AA = target: T21, 4H43-AA; assay: two-hybrid library CCmax; details: mean of both orientations
T21 chain: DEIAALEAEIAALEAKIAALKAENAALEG

4H510-AA = target: T22, 4H510-AA; assay: two-hybrid library CCmax; details: mean of both orientations
T22 chain: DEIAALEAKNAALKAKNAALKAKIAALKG

4H3865-AA = target: T23, 4H3865-AA; assay: two-hybrid library CCmax; details: mean of both orientations
T23 chain: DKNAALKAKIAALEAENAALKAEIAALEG

O11-AA = target: T24, O11-AA; assay: two-hybrid library CCmax; details: mean of both orientations
T24 chain: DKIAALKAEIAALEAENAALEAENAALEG

4H_GCN4 = assay: two-hybrid library CCmax
Chain of 4H_GCN4 (chain, as listed by the source): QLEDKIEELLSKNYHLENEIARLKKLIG

4H3907-bH = target: T25, 4H3907-bH; assay: two-hybrid library CCNG1
T25 chain: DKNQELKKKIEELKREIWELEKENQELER

4H1406-bH = target: T26, 4H1406-bH; assay: two-hybrid library CCNG1
T26 chain: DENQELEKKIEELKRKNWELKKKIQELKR

4H3592-bH = target: T27, 4H3592-bH; assay: two-hybrid library CCNG1
T27 chain: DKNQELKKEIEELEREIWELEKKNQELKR

4H4038-bH = target: T28, 4H4038-bH; assay: two-hybrid library CCNG1
T28 chain: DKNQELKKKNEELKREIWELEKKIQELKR

4H3601-bH = target: T29, 4H3601-bH; assay: two-hybrid library CCNG1
T29 chain: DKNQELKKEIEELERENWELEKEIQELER

- interaction score (O1-AA): -1.04
- interaction score (4H697-AA): -1.86
- interaction score (O13-AA): -1.52
- interaction score (4H384-AA): -1.34
- interaction score (4H982-AA): -1.63
- interaction score (4H4038-AA): -1.15
- interaction score (4H_BCR): -2.23
- interaction score (O3-AA): 1.52
- interaction score (GCN2_T): -1.61
- interaction score (O4-AA): -0.235
- interaction score (O6-AA): -0.52
- interaction score (O8-AA): 0.295
- interaction score (O7-AA): -1.59
- interaction score (O2-AA): -1.68
- interaction score (4H3905-AA): 0.75
- interaction score (4H451-AA): -0.0732
- interaction score (P10-AA): -1.12
- interaction score (O14-AA): 0.835
- interaction score (P9-AA): -0.334
- interaction score (O5-AA): -0.778
- interaction score (4H_APH): -1.66
- interaction score (4H43-AA): 0.71
- interaction score (4H510-AA): -1.55
- interaction score (4H3865-AA): -0.294
- interaction score (O11-AA): 2.48
- interaction score (4H_GCN4): -2.22
Binder: DEIAALEAKIAALKAKNAALKAKNAALKG [4H384-AA]

- interaction score (4H3907-bH): 1.11
- interaction score (4H1406-bH): -0.652
- interaction score (4H3592-bH): 1.08
- interaction score (4H4038-bH): -0.136
- interaction score (4H3601-bH): 0.0362
Binder: DENQELEKKIEELKRKNWELKKKIQELKR [4H1406-bH]
